According to patent US20240016892A1 (SHATTUCK LABS, published 2024):

How the values were obtained:
recombinant human PVR [1] = target: T1, recombinant human PVR (human, UniProt P15151 21-343); experiment: BLI (Octet-Red96), tagged rhPVR immobilised on biosensor
T1 construct: The tagged PVR of the BLI assay and the biotinylated PVR used as detector in MSD are treated as one molecule; also called rhPVR; CD155
T1 sequence (looked up): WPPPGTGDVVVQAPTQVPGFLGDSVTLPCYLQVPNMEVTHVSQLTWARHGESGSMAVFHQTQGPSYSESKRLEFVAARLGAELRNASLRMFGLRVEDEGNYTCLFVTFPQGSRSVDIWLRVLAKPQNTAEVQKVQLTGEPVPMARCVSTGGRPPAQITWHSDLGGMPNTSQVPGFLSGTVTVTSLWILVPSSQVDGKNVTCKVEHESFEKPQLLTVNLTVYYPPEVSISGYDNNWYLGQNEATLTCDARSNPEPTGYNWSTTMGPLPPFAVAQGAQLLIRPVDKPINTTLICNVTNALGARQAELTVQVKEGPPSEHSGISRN
Method: (§1) Bio-Layer interferometry-based affinity testing was used to determine the on-rates (Ka), off-rates (Kd) and binding affinities (KD) of the TIGIT-Fc-LIGHT chimeric protein to intended binding targets, using histidine- or biotin-tagged versions of the human recombinant proteins (PVR, HVEM, LTβR, PVRL2, PVRL3, and Nectin-4; purchased from Acro Biosystems or Sino Biological). Commercially available or internally produced single-sided fusion protein controls (TIGIT-Fc and Fc-LIGHT) were also tested in parallel. Targets were immobilized at a concentration of 3 μg/mL in Kinetics buffer (PBS/0.1% Tween-20/1% BSA; pH7.0) to anti-pentaHis or streptavidin coated biosensors. Direct binding of fusion proteins to recombinant target proteins was performed on an Octet-Red96 BLI instrument, using association and dissociation times of 90 and 120 seconds, respectively.
(§2) Protein-protein interactions (PPI) between the fusion proteins and their cognate binding partners were characterized using both recombinant protein and cell-based methods. First, bio-layer interferometry-based affinity testing was used to assess the kinetics of receptor/ligand binding.

recombinant human HVEM = target: T2, recombinant human HVEM (human, UniProt Q92956 39-202); experiment: BLI (Octet-Red96), tagged rhHVEM immobilised on biosensor
T2 construct: Construct limits and tag not specified; also called rhHVEM; TNFRSF14
T2 sequence (looked up): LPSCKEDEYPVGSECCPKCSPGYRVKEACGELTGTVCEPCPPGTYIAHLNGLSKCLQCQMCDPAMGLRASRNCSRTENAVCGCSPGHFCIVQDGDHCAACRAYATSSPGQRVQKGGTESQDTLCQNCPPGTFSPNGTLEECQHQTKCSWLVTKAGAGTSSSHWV
Method: as §1, §2

recombinant human LTβR [2] = target: T3, recombinant human LTβR (human, UniProt P36941 31-227, limits assumed); experiment: BLI (Octet-Red96), tagged rhLTβR immobilised on biosensor
T3 construct: Bought from Acro Biosystems or Sino Biological; construct limits and tag not specified; also called rhLTβR; TNFRSF3
T3 sequence (P36941 31-227 limits assumed): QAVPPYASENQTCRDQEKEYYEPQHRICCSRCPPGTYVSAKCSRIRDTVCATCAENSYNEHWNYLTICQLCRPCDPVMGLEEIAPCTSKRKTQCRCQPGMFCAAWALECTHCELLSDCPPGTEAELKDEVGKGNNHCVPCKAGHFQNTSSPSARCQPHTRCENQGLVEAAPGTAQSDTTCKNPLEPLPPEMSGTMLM
Method: as §1, §2

[3] = target: T4, cell surface human LTβR (A375 cells; U2OS/NIK/NFκB reporter cells) (human, UniProt P36941 31-435); experiment: flow cytometry, A375 cells that express human LTβR; cell surface LTβR
T4 construct: whole, on cells; also called cell surface LTβR
T4 sequence (P36941 31-435): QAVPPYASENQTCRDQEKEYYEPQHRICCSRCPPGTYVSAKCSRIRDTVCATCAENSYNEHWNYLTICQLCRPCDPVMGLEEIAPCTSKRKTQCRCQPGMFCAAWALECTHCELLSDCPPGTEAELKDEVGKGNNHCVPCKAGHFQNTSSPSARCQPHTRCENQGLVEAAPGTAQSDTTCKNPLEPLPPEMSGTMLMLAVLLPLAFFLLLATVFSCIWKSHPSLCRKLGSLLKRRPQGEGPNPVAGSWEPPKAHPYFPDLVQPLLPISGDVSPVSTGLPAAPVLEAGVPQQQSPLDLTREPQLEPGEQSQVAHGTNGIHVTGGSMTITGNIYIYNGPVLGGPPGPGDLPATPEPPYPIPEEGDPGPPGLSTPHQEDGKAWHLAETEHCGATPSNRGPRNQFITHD

recombinant human LTβR [4] = target: T3, recombinant human LTβR; experiment: BLI (Octet), affinity for recombinant human LTβR compared with Fc-LIGHT
Method: as §1, §2

[5] = target: T5, cell surface human HVEM (CHO-K1/hHVEM cells; Jurkat effector cells; human PBMC) (human, UniProt Q92956 39-283); experiment: flow cytometry, CHO-K1 cells stably expressing human HVEM; cell surface HVEM
T5 construct: whole, on cells; also called cell surface HVEM
T5 sequence (looked up): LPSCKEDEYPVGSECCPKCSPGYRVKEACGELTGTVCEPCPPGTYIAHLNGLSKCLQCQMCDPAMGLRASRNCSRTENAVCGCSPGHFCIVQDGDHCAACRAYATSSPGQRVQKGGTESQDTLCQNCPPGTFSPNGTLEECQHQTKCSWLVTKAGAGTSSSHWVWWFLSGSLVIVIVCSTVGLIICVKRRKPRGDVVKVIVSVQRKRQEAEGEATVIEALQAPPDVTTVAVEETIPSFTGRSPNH

recombinant human PVR [6] = target: T1, recombinant human PVR; experiment: MSD sandwich 'Dual - Potency #1': capture LTβR-Fc, TIGIT-Fc-LIGHT titrated, detection PVR-Biotin (same curve as the capture row)
Method: For the TIGIT-Fc-LIGHT chimeric protein; MSD Multi-Array plates (MSD) were pre-coated overnight with recombinant human LTβR-Fc or HVEM-Fc (Acro Biosystems) at 4° C. The plates were blocked with Diluent 100 (MSD) for at least one hour at room temperature on a shaker. After washing, analysis samples were added and then serially diluted 3-fold and loaded in duplicate wells to generate 8-10 test concentrations. The bound the TIGIT-Fc-LIGHT chimeric protein was detected with recombinant biotinylated human PVR (Acro Biosystems). Streptavidin conjugated to ruthenium (MSD), was added to bind the biotin labeled detector. MSD Gold Reading buffer (MSD) was added to the plate, and upon application of an electrical charge, an electrochemiluminescent signal was produced and detected with the MSD MESO QuickPlex SQ 120MM, Model 1300, to generate relative light units (RLU). Analogous assays were performed using mTIGIT-Fc-LIGHT and murine recombinant PVR, HVEM, and […] (Acro Biosystems).
The binding of the TIGIT-Fc-LIGHT chimeric protein to its receptors was characterized by Meso Scale Discovery (MSD) ELISA assays. […] Binding of the chimeric protein to LTβR-Fc was detected using an PVR-Biotin and using an electrochemiluminescence (ECL) readout. […] Binding of the chimeric protein to HVEM-Fc was detected using an PVR-Biotin and using an electrochemiluminescence (ECL) readout. […]

B1: human TIGIT-Fc-LIGHT chimeric protein (Fc fusion)
chain: MMTGTIETTGNISAEKGGSIILQCHLSSTTAQVTQVNWEQQDQLLAICNADLGWHISPSFKDRVAPGPGLGLTLQSLTVNDTGEYFCIYHTYPDGTYTGRIFLEVLESSVAEHGARFQIPSKYGPPCPPCPAPEFLGGPSVFLFPPKPKDQLMISRTPEVTCVVVDVSQEDPEVQFNWYVDGVEVHNAKTKPREEQFNSTYRVVSVLTVLHQDWLSGKEYKCKVSSKGLPSSIEKTISNATGQPREPQVYTLPPSQEEMTKNQVSLTCLVKGFYPSDIAVEWESNGQPENNYKTTPPVLDSDGSFFLYSRLTVDKSRWQEGNVFSCSVLHEALHNHYTQKSLSLSLGKIEGRMDLQLHWRLGEMVTRLPDGPAGSWEQLIQERRSHEVNPAAHLTGANSSLTGSGGPLLWETQLGLAFLRGLSYHDGALVVTKAGYYYIYSKVQLGGVGCPLGLASTITHGLYKRTPRYPEELELLVSQQSPCGRATSSSRVWWDSSFLGGVVHLEAGEKVVVRVLDERLVRLRDGTRSYFGAFMV
notes: Said to exist as a hexamer (dimer of trimers); Glycosylated; also called hTIGIT-Fc-LIGHT; TIGIT-Fc(IgG4)-LIGHT
Kd (recombinant human PVR [1]): 4.07 nM | koff (recombinant human PVR [1]): 0.000103 s⁻¹ | kon (recombinant human PVR [1]): 25300 M⁻¹ s⁻¹ | Kd (recombinant human HVEM): 6.49 nM | koff (recombinant human HVEM): 0.000173 s⁻¹ | kon (recombinant human HVEM): 26100 M⁻¹ s⁻¹ | Kd (recombinant human LTβR [2]): 3.52 nM | koff (recombinant human LTβR [2]): 7.44e-05 s⁻¹ | kon (recombinant human LTβR [2]): 21200 M⁻¹ s⁻¹ | EC50 [3]: 87.1 nM | fold affinity relative to Fc-LIGHT control (recombinant human LTβR [4]): ~8 fold | EC50 [5]: 65.8 nM | EC50 (recombinant human PVR [6]): 28.3 nM
